Here are results for seven molecules from patent US20200317768A1 (published 2020).

Residue numbers refer to the chain shown, from its start.

Test [1] deals with T1, cynomolgus monkey FcγRIIa2 extracellular domain, His-tagged (cynomolgus monkey).
T1 construct: also called cyno FcgRIIa2; cynoFcγRIIa2; not shown: His-tag added to the C-terminus
T1 chain: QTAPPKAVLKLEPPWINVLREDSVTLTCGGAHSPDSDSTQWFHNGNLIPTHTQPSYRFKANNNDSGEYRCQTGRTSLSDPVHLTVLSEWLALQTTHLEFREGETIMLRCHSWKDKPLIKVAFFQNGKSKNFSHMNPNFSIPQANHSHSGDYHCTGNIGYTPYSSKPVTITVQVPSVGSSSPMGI
As to the kind of experiment: SPR; KD of SG1 divided by KD of the variant.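 Also: relative to parent M103205H795-SG1 carrying the SG1 human heavy chain constant region.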 On the procedure:
(§1) Regarding such interactions, KD values were calculated using the following 1:1 binding model described in BIACORE® T100 Software Handbook BR1006-48 Edition AE.
(§2) The behavior of interacting molecules according to the 1:1 binding model on BIACORE® can be described by Equation 1: Req=C·R max/(KD+C)+RI, wherein, Req is a plot of steady-state binding levels to analyte concentration. C is concentration, RI is bulk refractive index contribution in the sample, and Rmax is analyte binding capacity of the surface. When this equation is rearranged, KD can be expressed as Equation 2: KD=C·Rmax/(Req−RI)−C. KD can be calculated by substituting the values of Rmax, RI, and C into Equation 1 or Equation 2. From the current measurement conditions, RI=0, C=2 μmol/L can be used.
(§3) The resultant variants were expressed using M103202L889-SK1 as light chain and their affinity to human and cynoFcγRs were evaluated (Table 21).
(In general: Surface plasmon resonance follows binding to a sensor surface in real time, without labels.)

Test [2] concerns the target T2, human FcγRIIb extracellular domain, His-tagged (human, UniProt P31994 43-217).
T2 construct: also called human FcgRIIb; not shown: His-tag added to the C-terminus
T2 sequence: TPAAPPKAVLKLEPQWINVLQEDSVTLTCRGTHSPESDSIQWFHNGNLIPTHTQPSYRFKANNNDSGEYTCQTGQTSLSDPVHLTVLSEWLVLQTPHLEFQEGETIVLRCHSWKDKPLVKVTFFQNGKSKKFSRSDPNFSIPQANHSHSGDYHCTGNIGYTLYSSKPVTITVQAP
As to the kind of experiment: SPR; KD of SG1 divided by KD of the variant.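 Also: relative to parent M103205H795-SG1 carrying the SG1 human heavy chain constant region.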 On the procedure: as §1, §2, §3

B1: M103205H795-MY260/M103202L889-SK1 (antibody, human IgG1, kappa)
heavy: QVTLKESGPVLVKPTETLTLTCTVSGIDLSHDDISWVRQAPGKGLEWVGIISYAGSTYYASWAKGRLTISKDTSKNQVVLTMTNMDPVDTATYYCARGVPAYSHGGDLWGQGTLVTVSSASTKGPSVFPLAPSSKSTSGGTAALGCLVKDYFPEPVTVSWNSGALTSGVHTFPAVLQSSGLYSLSSVVTVPSSSLGTQTYICNVNHKPSNTKVDKKVEPKSCDKTHTCPPCPAPELLMGPSVFLFPPKPKDTLMISRTPEVTCVVVDVSDEDPEVKFNWYVDGVEVHNAKTKPREEQYNSTYRVVSVLTVLHQDWLNGKEYKCKVSNKALPKPIEKTISKAKGQPREPQVYTLPPSREEMTKNQVSLTCLVKGFYPSDIAVEWESNGQPENNYKTTPPVLDSDGSFFLYSKLTVDKSRWQQGNVFSCSVMHEALHNHYTQKSLSLSP
light: DIVMTQSPATLSLSPGERATLSCTSSQSVYHANWLSWFQQKPGQPPKLLIYWASTLAYGVPSRFSGSGSGTDFTLTISSLQPEDAATYYCAGGYGGGRYAFGQGTKVEIKRTVAAPSVFIFPPSDEQLKSGTASVVCLLNNFYPREAKVQWKVDNALQSGNSQESVTEQDSKDSTYSLSSTLTLSKADYEKHKVYACEVTHQGLSSPVTKSFNRGEC
notes: copies: 2 + 2
Turning to B1, the “KD fold (SG1 = 1)” value amounted to 1.4 fold in test [1] and 0.8 fold in test [2].

B2: M103205H795-MY262/M103202L889-SK1 (antibody, human IgG1, kappa)
heavy: B1 heavy with M238V
light: B1 light
notes: copies: 2 + 2
In the case of B2, the “KD fold (SG1 = 1)” value in test [1] is 3 fold; in test [2] it was 0.8 fold.

B3: M103205H795-MY267/M103202L889-SK1 (antibody, human IgG1, kappa)
heavy: B1 heavy with M238I
light: B1 light
notes: copies: 2 + 2
B3: the results for the “KD fold (SG1 = 1)” value in test [1] and in test [2] were 2.6 fold and 0.8 fold, respectively.

B4: M103205H795-MY265/M103202L889-SK1 (antibody, human IgG1, kappa)
heavy: B1 heavy with M238T
light: B1 light
notes: copies: 2 + 2
Consider B4, for which the “KD fold (SG1 = 1)” value in test [1] turned out to be 2.7 fold; in test [2], 2.1 fold.

B5: M103205H795-MY261/M103202L889-SK1 (antibody, human IgG1, kappa)
heavy: B1 heavy with M238H
light: B1 light
notes: copies: 2 + 2
On to B5, for which the “KD fold (SG1 = 1)” value in test [1] is 1.3 fold; in test [2] it was 0.9 fold.

B6: M103205H795-MY264/M103202L889-SK1 (antibody, human IgG1, kappa)
heavy: B1 heavy with M238L
light: B1 light
notes: copies: 2 + 2
On to B6, for which the “KD fold (SG1 = 1)” value in test [1] turned out to be 0.9 fold; in test [2], 0.4 fold.

B7: M103205H795-MY263/M103202L889-SK1 (antibody, human IgG1, kappa)
heavy: B1 heavy with M238Q
light: B1 light
notes: copies: 2 + 2
B7: the entries for the “KD fold (SG1 = 1)” value in test [1] and in test [2] were 1.7 fold and 1.3 fold, respectively.
